Data: US20180118791

Columns and labels:
SFNSYTC = test system: T1, SFNSYTC
T1 sequence: SFNSYTC

[1] = test system: T2, mutacin 1140 C-terminal carboxyl analog (mu1140-COOH)
T2 sequence: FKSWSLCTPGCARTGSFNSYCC

MutD
Observed mass (Da) after in vitro decarboxylation with MutD, 1 hr (MALDI-TOF) (SFNSYTC): 798 Da | Observed mass (Da) after in vitro decarboxylation with MutD, 1 hr (MALDI-TOF) [1]: 2310 Da | Observed mass (Da) after in vitro decarboxylation with MutD, 10 hr (MALDI-TOF) [1]: 2310 Da
